In US20230365705A1 (DYNAMICURE BIOTECHNOLOGY, published 2023):
“And” between values parts separate entries of the source, which are not always exact repeats. Identical values can stand only once. One block for each binder: values may come before it.

Tests used:
[1] = molecular target: T1, Human CD93 recombinant protein (Sino Biological Inc, Catalog #12589-H08H) (human, UniProt Q9NPY3 22-580); assay: ELISA, hCD93-His coated, OD450
T1 construct: Biotinylated (EZ-LINK NHS-PEG4 biotin) in the BLI assays; also called hCD93; His-tagged human CD93
T1 sequence (looked up): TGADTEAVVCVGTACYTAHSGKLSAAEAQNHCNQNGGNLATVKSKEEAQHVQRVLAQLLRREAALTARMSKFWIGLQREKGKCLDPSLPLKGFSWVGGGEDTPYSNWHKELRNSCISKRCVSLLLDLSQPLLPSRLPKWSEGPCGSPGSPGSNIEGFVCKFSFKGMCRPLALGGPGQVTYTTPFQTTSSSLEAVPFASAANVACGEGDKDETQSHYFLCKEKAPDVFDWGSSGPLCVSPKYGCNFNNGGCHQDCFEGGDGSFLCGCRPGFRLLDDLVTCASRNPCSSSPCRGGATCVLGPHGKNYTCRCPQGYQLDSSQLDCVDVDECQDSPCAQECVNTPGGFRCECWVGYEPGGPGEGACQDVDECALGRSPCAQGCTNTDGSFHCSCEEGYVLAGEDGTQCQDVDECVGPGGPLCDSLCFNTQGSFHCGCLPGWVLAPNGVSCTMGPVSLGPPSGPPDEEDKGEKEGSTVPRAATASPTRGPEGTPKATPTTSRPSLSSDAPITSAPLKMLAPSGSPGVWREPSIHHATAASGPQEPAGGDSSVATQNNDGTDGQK
Experimental: His-tagged human CD93 was coated onto a 96 well plate at 1 μg/mL in 1×PBS overnight at 4° C. The plate was washed with ELISA wash buffer (Boston BioProduct, Inc.) and the wells were blocked with ELISA blocking buffer for 1 hour at 37° C. Purified antibodies were serially diluted in ELISA blocking buffer (Boston BioProduct, Inc.) and incubated on the receptor for 1 hour at 37° C. The plate was washed with ELISA wash Buffer. […] The plate was washed with ELISA wash buffer. HRP substrate was added for indirect detection of the antibodies binding to CD93.

[2] = molecular target: T1, Human CD93 recombinant protein (Sino …); assay: summary table, column ELISA (hCD93)
[3] = molecular target: T1, Human CD93 recombinant protein (Sino …); assay: summary table, column Octet (hCD93)
[4] = molecular target: T2, Human CD93 on cells (human CD93 expressing CHO cells; HUVEC, U937 and KG1a cells) (human, UniProt Q9NPY3 22-652); assay: flow cytometry on human CD93 expressing CHO cells
T2 construct: whole, on cells; also called hCD93 expressing CHO cells; hCD93 CHO cells
T2 sequence (looked up): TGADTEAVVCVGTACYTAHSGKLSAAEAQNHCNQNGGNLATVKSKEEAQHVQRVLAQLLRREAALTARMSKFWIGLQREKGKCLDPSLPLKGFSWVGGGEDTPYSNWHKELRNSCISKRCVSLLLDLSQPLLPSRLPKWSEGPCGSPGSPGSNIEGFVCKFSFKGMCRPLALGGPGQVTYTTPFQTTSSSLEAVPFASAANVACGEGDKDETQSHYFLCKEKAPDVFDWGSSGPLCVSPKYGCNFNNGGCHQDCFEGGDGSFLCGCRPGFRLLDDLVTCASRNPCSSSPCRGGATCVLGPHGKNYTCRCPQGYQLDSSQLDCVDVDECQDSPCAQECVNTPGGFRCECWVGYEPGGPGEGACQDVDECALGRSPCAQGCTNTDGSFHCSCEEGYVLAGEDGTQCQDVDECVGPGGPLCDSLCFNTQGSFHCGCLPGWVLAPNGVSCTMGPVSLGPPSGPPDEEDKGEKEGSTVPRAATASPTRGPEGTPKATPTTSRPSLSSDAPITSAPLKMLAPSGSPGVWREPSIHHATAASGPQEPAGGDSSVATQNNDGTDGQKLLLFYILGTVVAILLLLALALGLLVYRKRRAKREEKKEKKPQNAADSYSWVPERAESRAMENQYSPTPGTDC
Experimental: Human CD93 expressing CHO cells were detached by incubation with TrypLE reagents (Thermo Fisher), which preserves the integrity of CD93 on the cell surface. Then the cells were incubated with serially diluted anti-CD93 antibodies for 30 minutes in 4° C. After washing by FACS buffer, the cells were incubated with Alexa Fluor 647 conjugated anti-human IgG (Jackson ImmunoResearch) for 30 minutes in 4° C. After washing by FACS buffer twice, the samples were acquired in NovoCyte Flow Cytometer and analyzed by NovoExpress software.

[5] = molecular target: T1, Human CD93 recombinant protein (Sino …); assay: ELISA, His-tagged human CD93 coated, OD450
Experimental: (§1) His-tagged human CD93 was coated onto a 96 well plate at 1 μg/mL in 1×PBS overnight at 4° C. The plate was washed with ELISA wash buffer (Boston BioProduct, Inc.) and the wells were blocked with ELISA blocking buffer for 1 hour at 37° C. […] The plate was washed with ELISA wash Buffer. HRP-conjugated anti-human Fc antibody was incubated for 1 hour at 37° C. The plate was washed with ELISA wash Buffer. HRP substrate was added for indirect detection of the antibodies binding to CD93.

[6] = molecular target: T1, Human CD93 recombinant protein (Sino …); assay: BLI (Octet QKe), biotinylated human CD93 on streptavidin biosensors
Experimental: The binding affinity of anti-CD93 antibodies was determined with bio-layer interferometry using Octet QKe (Fortebio). […] Human CD93 recombinant protein (Sino Biological Inc, Catalog #12589-H08H) was biotinylated using EZ-LINK NHS-PEG4 biotin (Thermo Fisher Scientific). Streptavidin biosensors (Fortebio) were used to load biotinylated CD93 protein (300 seconds in 5 μg/ml). Baseline was stabilized for 60 seconds in 1×kinetics buffer (Fortebio) before anti-CD93 antibodies, at a serial dilution, were allowed to associate for 300 seconds with captured protein. Then the sensors were dissociated in 1× kinetics buffer for 600 seconds. […] (FIG. 41).

[7] = molecular target: T2, Human CD93 on cells (human CD93 …); assay: flow cytometry, CHO-hCD93 cells, APC-A
[8] = molecular target: T2, Human CD93 on cells (human CD93 …); assay: summary table, column FACS (HUVEC cells)
[9] = molecular target: T2, Human CD93 on cells (human CD93 …); assay: summary table, column FACS (CHO-hCD93 cells)
[10] = molecular target: T3, Mouse CD93 on cells (mouse CD93 expressing CHO cells; mouse CD93 expressing HEK cells) (mouse, UniProt O89103 23-644); assay: summary table; method and form of mouse CD93 not given
T3 construct: whole, on cells; also called mCD93 HEK; CD93-HEK cells
T3 sequence (looked up): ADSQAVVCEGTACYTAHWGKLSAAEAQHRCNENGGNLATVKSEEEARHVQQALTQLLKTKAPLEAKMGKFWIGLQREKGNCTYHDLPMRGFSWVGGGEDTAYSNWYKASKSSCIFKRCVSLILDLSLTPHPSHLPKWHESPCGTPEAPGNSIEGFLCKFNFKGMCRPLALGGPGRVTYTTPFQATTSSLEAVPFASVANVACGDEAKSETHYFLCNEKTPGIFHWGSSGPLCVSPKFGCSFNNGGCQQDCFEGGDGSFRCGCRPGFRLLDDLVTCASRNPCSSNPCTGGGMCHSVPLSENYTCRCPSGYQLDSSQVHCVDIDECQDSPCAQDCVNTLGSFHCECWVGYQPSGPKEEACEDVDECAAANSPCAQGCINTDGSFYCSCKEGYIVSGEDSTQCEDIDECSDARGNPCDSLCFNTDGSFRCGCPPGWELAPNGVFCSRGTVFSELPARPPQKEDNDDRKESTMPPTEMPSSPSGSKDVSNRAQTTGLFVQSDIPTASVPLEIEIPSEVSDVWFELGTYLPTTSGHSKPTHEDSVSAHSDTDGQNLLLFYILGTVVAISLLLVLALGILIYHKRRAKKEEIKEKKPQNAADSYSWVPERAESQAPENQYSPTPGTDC

[11] = molecular target: T1, Human CD93 recombinant protein (Sino …); assay: BLI (Octet), human CD93; sheet prints Anti-Penta-HIS(HIS1K) biosensor
[12] = molecular target: T2, Human CD93 on cells (human CD93 …); assay: flow cytometry blocking assay, CHO-hCD93 cells, antibody 50 ug/ml then MMRN2 0.5 ug/ml, APC-A
Experimental: (§2) After incubation, the cells were washed with FACS buffer and incubated with anti-His conjugated APC or streptavidin conjugated APC at a ratio of 1:500 for 30 minutes at 4° C. After washing with FACS buffer twice, the samples were analyzed and data acquired in NovoCyte Flow.

[13] = molecular target: T2, Human CD93 on cells (human CD93 …); assay: flow cytometry blocking assay, CHO-hCD93 cells, antibody 50 ug/ml then MMRN2 0.1 ug/ml, APC-A
Experimental: as §2

[14] = molecular target: T1, Human CD93 recombinant protein (Sino …); assay: ELISA, His-tagged human CD93 coated, OD450; remark: listed apart in the source
Experimental: as §1, with “HRP-conjugated anti-human Fc antibody was incubated for 1 hour at 37° C.” left out

[15] = molecular target: T2, Human CD93 on cells (human CD93 …); assay: flow cytometry, CHO cells overexpressing human CD93, antibody 0.01ug, mIgG1 as control, APC-A
[16] = molecular target: T2, Human CD93 on cells (human CD93 …); assay: flow cytometry titration on KG1a cells; column head printed kd, unit from the axis log (concentration (M))
[17] = molecular target: T2, Human CD93 on cells (human CD93 …); assay: flow cytometry titration on U937 cells; column head printed kd, unit from the axis log (concentration (M))

- EC50 [1]: 0.022 nM
- EC50 [2]: 0.041 nM
- Kd [3]: 0.135 nM
- EC50 [4]: 0.24 nM
- EC50 [5]: 0.041 nM
- Kd [6]: 0.135 nM
- koff [6]: 2.93e-05 s⁻¹
- kon [6]: 217000 M⁻¹ s⁻¹
B1: 16E4-hIgG1 (recombinant chimeric 16E4) (antibody, V domains shown)
VH: QVQLQQPGAELVKPGASVKLSCKASGYTFTSYWMHWVKQRPGQGLEWIGEIDPSASYTYYNQKFKGKATLTVDKSSSTAYMQLSSLTSEDSAVYYCARSVYYGNKYFDVWGAGTTVTVSS
VL: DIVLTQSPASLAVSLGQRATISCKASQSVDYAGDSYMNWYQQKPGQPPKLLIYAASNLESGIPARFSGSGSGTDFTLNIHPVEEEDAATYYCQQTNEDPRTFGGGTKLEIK
notes: the same paragraph once calls it 'humanized'; also called recombinant 16E4

- EC50 [1]: 0.0667 nM
- EC50 [2]: 0.0667 nM
- Kd [3]: 0.493 nM
- M3 gate, % of cells [7]: 96.3%
- EC50 [8]: 2.94 nM
- EC50 [9]: 0.21 nM
- binding result [10]: no binding
- Kd [11]: 1.26 nM
- koff [11]: 0.000478 s⁻¹
- kon [11]: 381000 M⁻¹ s⁻¹
- M3 gate, % of cells positive for MMRN2 after the antibody [12]: 9.93%
- M3 gate, % of cells positive for MMRN2 after the antibody [13]: 12.2%
B2: 7F3 (hybridoma) (antibody, IgG1, V domains shown)
VH: QVQLQQSGADLVRPGASVKLSCKASGYTFTDYEMHWVKQTPVYGLEWIGGIDPETGDTAYNQNFKGKATLTADKSSSAAYMELRSLTSEDSAVYYCTNYGNLYYYAMDYWGQGTSVTVSS
VL: ENVLTQSPAIMSASPGEKVTMTCRASSSVSSSYLHWYQQKSGASPKLWIYSTSNLAFGVPARFSGSGSGTSYSLTISSVEAEDAATYYCQQYSGYPLTFGSGTKLEIK
notes: also called 7F3 mAb; 7F3 mIgG1

- EC50 [14]: 0.213 nM
- M2 gate, % of cells [15]: 93%
- Kd [16]: 0.0772 nM and 0.0952 nM
- Kd [17]: 0.104 nM and 0.0944 nM
B3: humanized 17B10 (VH3VL3, i.e., H3L3) with a chimeric Fc containing mouse IgG1 CH2 and CH3 domains and human CH1 domains (antibody, V domains shown)
VH: QVQLVQSGPEVKKPGESLKISCKASGYAFSSYWLNWVRQMPGKGLEWMGRIYPGDGDTDYNGKFKGQVTISADKSSGTAYLQLSSLKASDTAVYFCVRGDGYWAMDYWGQGTLVTVSS
VL: DIVMTQSPDSLAVSLGERATINCRFSKSLLHSNGITYLYWYQQKPGQPPKLLIYQMSNLASGVPDRFSGSGSGTDFTLTISSLQAEDVAVYYCAQNLELPWTFGGGTKLEIK
notes: Human CH1, mouse IgG1 CH2 and CH3; also called h17B10-H3L3; humanized 17B10-mFc
